The source of these data is PMC10115415, “RNA binding induces an allosteric switch in Cyp33 to repress MLL1-mediated transcription”.

What all share (settings): protein: recombinant; tags: AGH N-terminal after intein cleavage
The target of series [1] is T1, Cyp33 RRM (human, UniProt Q9UNP9 1-114). The series can be described thus: NMR titration; NMR titrations: 20 mM KHPO4 pH 7, 40 mM KCl, 1 mM DTT, 289.15 K as printed (table S2 says 298.15 K for Kd); structures of complexes: 40 mM KCl, 20 mM KH2PO4 pH.
T1 sequence (Q9UNP9 1-114): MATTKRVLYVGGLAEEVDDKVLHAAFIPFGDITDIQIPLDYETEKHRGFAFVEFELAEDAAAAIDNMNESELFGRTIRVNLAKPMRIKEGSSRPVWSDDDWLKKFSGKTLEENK
Another series deals with Cyp33-K (RRM) (human, UniProt Q9UNP9 1-114, K83A). The series is described as above.
Chain of Cyp33-K (RRM) (Q9UNP9 1-114 K83A): as the sequence (Q9UNP9 1-114) above, with K83A counted along it
The target in the next series is Cyp33-RK (RRM) (human, UniProt Q9UNP9 1-114, R86A;K88A). Described as above.
Chain of Cyp33-RK (RRM) (Q9UNP9 1-114 R86A/K88A): as the sequence (Q9UNP9 1-114) above, with R86A, K88A counted along it
Series [2] has as its target T1, Cyp33 RRM. The experiment in a line: NMR structure and titration; low affinity, multiple registers; NMR titrations: 20 mM KHPO4 pH 7, 40 mM KCl, 1 mM DTT, 289.15 K as printed (table S2 says 298.15 K for Kd); structures of complexes: 40 mM KCl, 20 mM KH2PO4 pH.
For series [3], the target named is T1, Cyp33 RRM. The series can be described thus: NMR titration; weak, fast exchange; NMR titrations: 20 mM KHPO4 pH 7, 40 mM KCl, 1 mM DTT, 289.15 K as printed (table S2 says 298.15 K for Kd); structures of complexes: 40 mM KCl, 20 mM KH2PO4 pH.
Another series has as its target Cyp33 RRMΔα (human, UniProt Q9UNP9 1-90). The experiment in a line: NMR structure and titration; single register, larger shifts than with a3; NMR titrations: 20 mM KHPO4 pH 7, 40 mM KCl, 1 mM DTT, 289.15 K as printed (table S2 says 298.15 K for Kd); structures of complexes: 40 mM KCl, 20 mM KH2PO4 pH.

Chain of Cyp33 RRMΔα (Q9UNP9 1-90, stated change not applied): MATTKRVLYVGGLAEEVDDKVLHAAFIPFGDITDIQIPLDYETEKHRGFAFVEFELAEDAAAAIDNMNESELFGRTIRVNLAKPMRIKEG

B1: UAAUGU RNA (ssRNA)
RNA: UAAUGU
In general, Kd refers to the equilibrium constant for the complex coming apart. Take B1: the figures for the Kd with Cyp33 RRM [1], in the series with Cyp33-K (RRM) and with Cyp33-RK (RRM) were about 0.3 mM, about 1.8 mM and about 2 mM, respectively.

B2: AAUAAA RNA (poly-A signal) (ssRNA)
RNA: AAUAAA
With B2, the binding result in the series with Cyp33 RRM [2] was “binds”.

B3: UAAUGUCG RNA (ssRNA)
RNA: UAAUGUCG
In the case of B3, the binding result in the series with Cyp33 RRM [3] and with Cyp33 RRMΔα was “binds” throughout.
